Laboratory results taken from publication doi:10.1101/2024.07.14.603434 (bioRxiv, 2024).

Molecular target: the molecule itself
Assay: SEC

B1: NagS (SCO4393), N-acetylglucosamine-6-phosphate dehydratase (enzyme, Streptomyces coelicolor, UniProt Q9K3V1 1-251, looked up)
chain: MSDHKPAGQFLDAAIDLLRRVRDEEADSIEAAGTLLADTVQNGGRLFAFGAGHSSLAAQDVVYRAGGLALMNLLTVPGVVGIDVMPATLGSALERVDGLASAVLDSSPLRAGDALVIISLSGRNALPVEMAMHARALGLRVIGVTSVAYASQTTSRHASGTFLKDHCDIVLDSKIAVGDAELTLDTVPAPFAPASTVVTAALMQAVTATAAATLADRGIEPPLLRSGNVDGGHEWNARVLEQYGERIFYRR
B1 was tested, and the “stoichiometry N” value was 2.
